According to US20100076060, “Aptamers as agonists” (DUKE UNIVERSITY, published 2010):

T1: OX40 (CD134) (Mus musculus, UniProt P47741 P47741:20-211)
T1 sequence: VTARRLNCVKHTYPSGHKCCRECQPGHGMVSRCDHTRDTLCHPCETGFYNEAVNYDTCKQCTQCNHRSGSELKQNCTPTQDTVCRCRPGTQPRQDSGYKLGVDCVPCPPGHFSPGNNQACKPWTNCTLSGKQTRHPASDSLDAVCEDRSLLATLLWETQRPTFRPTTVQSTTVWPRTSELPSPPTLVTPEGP

B1: OX40 aptamer SEQ 80 (ssRNA)
RNA: GGGAGGACGAUGCGGCAAACCAGCUAUUUCCUGAGGUACCCCGGCUCUCCAUGGCAGACGACUCGCUGAGGAUCCGAGA
modifications: 2'-F pyrimidines, 2'-OH purines
B2: OX40 aptamer SEQ 78 (ssRNA)
RNA: GGGAGGACGAUGCGGAUACCAGGAUCACAUCCUGAGGAACCCCGGCUCCCAACCUCAGACGACUCGCUGAGGAUCCGAGA
modifications: 2'-F pyrimidines, 2'-OH purines
B3: OX40 aptamer SEQ 82 (ssRNA)
RNA: GGGAGGACGAUGCGGCUUUUGAAUGCUCCCUUCACUCCAAGCGGCAGCCUAUCGUCAGACGACUCGCUGAGGAUCCGAGA
modifications: 2'-F pyrimidines, 2'-OH purines
B4: OX40 aptamer SEQ 83 (ssRNA)
RNA: GGGAGGACGAUGCGGAUACCACCUAGUGUGAGGAACCCCGCUUCCUAGACUGCGCAGACGACUCGCUGAGGAUCCGAGA
modifications: 2'-F pyrimidines, 2'-OH purines
B5: OX40 aptamer SEQ 81 (ssRNA)
RNA: GGGAGGACGAUGCGGAUACCAGCGAAUAACUCGCUGAGGAACCCGACUCACAAACAGACGACUCGCUGAGGAUCCGAGA
modifications: 2'-F pyrimidines, 2'-OH purines
B6: OX40 aptamer SEQ 79 (ssRNA)
RNA: GGGAGGACGAUGCGGCUUUAAUCCUCGCACUCAGCGCGCAUCACCCUUGACAUCACAGACGACUCGCUGAGGAUCCGAGA
modifications: 2'-F pyrimidines, 2'-OH purines
B7: OX40 aptamer SEQ 85 (ssRNA)
RNA: GGGAGGACGAUGCGGCACUAACUCCAGCGACUCCAUCGCCAUUCCAACUCUACGCCAGACGACUCGCUGAGGAUCCGAGA
modifications: 2'-F pyrimidines, 2'-OH purines
B8: OX40 aptamer SEQ 77 (ssRNA)
RNA: GGGAGGACGAUGCGGCAGUCUGCAUCGUAGGAAUCGCCACCGUAUACUUUCCCACCAGACGACUCGCUGAGGAUCCGAGA
modifications: 2'-F pyrimidines, 2'-OH purines
B9: OX40 aptamer SEQ 86 (ssRNA)
RNA: GGGAGGACGAUGCGGCCGUCAACCAAUCUCUCGCUUCACACGGCCAUGCCUCCAUCAGACGACUCGCUGAGGAUCCGAGA
modifications: 2'-F pyrimidines, 2'-OH purines
B10: OX40 aptamer SEQ 84 (ssRNA)
RNA: GGGAGGACGAUGCGGCAACCCAUCCAUACCAACAUGGAGCUAAUGUUAGUCAACGCAGACGACUCGCUGAGGAUCCGAGA
modifications: 2'-F pyrimidines, 2'-OH purines

Each binder was assayed against T1, OX40 (CD134) (assay: filter; 20 mM Hepes pH 7.4, 150 mM NaCl, 2 mM CaCl2; Kd not given). Conditions: tags: human IgG Fc fusion; chain copies: 2; label: 5' 32P.
Procedure: Eleven rounds of selection were performed with increasing stringency throughout the selection process by increasing the RNA: OX40 protein ratio in the selection reaction. Aptamers from rounds 9 and 11 DNA were cloned into a plasmid vector, and single colonies were sequenced and amplified by low cycle PCR amplification following by in vitro transcription. Binding constants for the clones were determined using filter-binding assays in a buffer composed of 20 mM Hepes pH 7.4, 150 mM NaCl, 2 mM CaCl2. To determine the affinities of monomeric aptamers (e.g., which may be expressed as Kd or dissociation constant), serial dilutions of murine OX40 IgG Fc fusion protein, human IgG1, or protein G were incubated with monomeric 5′ ³²P radiolabeled aptamers at 2000 cpm/μL. The mixture was passed over a stack of membranes consisting of a nitrocellulose membrane and nylon membrane through application of a vacuum. The membranes were exposed to a phosphoimager screen, scanned and quantitated using a phosphoimager. Finally, differential fractions of RNA bound were calculated and graphed using commercially available software, and affinity was then expressed as Kd. The predicted secondary structure of the resultant nucleic acid aptamers was determined by utilizing the algorithm m-fold using default settings for folding parameters. Illustrative examples of the nucleic acid aptamers isolated from the aforementioned selections against OX40 are shown in Table 2; wherein nucleic acid sequences comprising SEQ ID NOs: […] represent the variable regions from clones with binding specificity to OX40; and a nucleic acid sequence comprising SEQ ID:87 represents the RNA library constant regions, with a constant region (e.g., nucleic acid bases in positions 1-41 of […]) flanking the 5′ end of the variable regions, a constant region (e.g., nucleic acid bases in positions 82-106 of SEQ ID NO:87) flanking the 3′end of the variable regions, and the variable regions being designated by N(40) in Table 2 (nucleic acid bases in positions 42-81 of SEQ ID NO:87). It is understood by those skilled in the art that the variable regions may be flanked by constant regions other than those comprising the constant regions depicted in SEQ ID NO: 87, while still retaining binding activity for OX40.

Binding result, binds:
B1
B2
B3
B4
B5
B6
B7
B8
B9
B10
